In the supplement of paper PMC12042874:
± gives the uncertainty stated by the source.

Assay: amyloid nucleation score (Sup35N fusion, yeast selection) (log enrichment); library NNK3; higher = more nucleation; inactive = no reads after selection
Method in brief: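 DiMSum was used to calculate nucleation scores as log enrichment of output over input reads, centred on the mode score of non-aggregating sequences. Sequences with fewer than 100 input reads were not scored. Input and output came from Illumina sequencing of plasmid inserts in psi-negative yeast expressing peptides of 20 random codons fused to Sup35N, induced 24 hours with 100 μM copper sulfate and then grown 7 days at 30°C on medium lacking adenine and uracil.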

| Substance | amyloid nucleation score |
| --- | --- |
| THRFGMVR | inactive |
| HMPDFVCLFNHVMPWIWIRV | inactive |
| SLATSYVNFILCRLLKFDHT | inactive |
| RHGFWSVSFVSRQFSNILSC | inactive |
| RTRFQITCQEETTCPRFS | 0.92 ± 0.16 |
| GLCRNCF | inactive |
| ILFSISSVMF | 0.605 ± 0.19 |
| SQHHPSGSSMWGKWIMLDPR | inactive |
| FSSMQDWSFGIYLNSEAPPT | inactive |
| FVRIYNFILLAV | inactive |
| YPKRMCDRHS | inactive |
| CLSTFLGRSEKPL | inactive |
| VVMACGFLGKRGDSGCLLVM | inactive |
| KYPNRKLF | inactive |
| WCGEKVCCRAQMSLTIKSLL | inactive |
| VMKNSTIILSFTFLSPKVSF | 2.16 ± 0.069 |
| LSSCLSRI | inactive |
| RDISIFRFRYTRRSWWLSFG | inactive |
| TFVLRDTDVCKCSSYKRPNF | inactive |
| DIFGSGYGYRGLSGRNYINM | inactive |
| LFWPICFHNMTFVLYTSLLN | inactive |

| Substance | amyloid nucleation score |
| --- | --- |
| LVIIQCSNRGVSKYRLVGTD | 1.82 ± 0.071 |
| TVSTNDFSL | -0.61 ± 0.9 |
| CCVMHDE | inactive |
| FMGTGHSFGSQNPVSLILKS | inactive |
| WSFCGLYLNI | 1.62 ± 0.095 |
| CEYVNKLHTVGVHWGTGSRE | inactive |
| EVKFYWKYKGV | 0.561 ± 0.16 |
| TKDGHYA | inactive |
| VLGPDGRVKYVAKDSNIMVI | inactive |
| WGLGFFAI | inactive |
| NGYMSRVHLCPKCFRLHGFR | inactive |
| LEGSYPRADIAVNVFTVFTQ | inactive |
| RIVFSKVMLVEIRTSLWFCT | inactive |
| EGIGDVCCKTPEYRSFGWMR | -1.13 ± 2.4 |
| ASGLDIISSSNKLH | inactive |
| FVKKRLVKGKNFFIELFLMC | inactive |
| GDGNRWDRTGSCHLQGAYCR | inactive |
| TICLSRVTYVSRQEWGSASV | -0.023 ± 1 |
| QKAYKYSDI | inactive |
| KISISD | inactive |
| NYRPRKKVFGLR | -0.005 ± 0.88 |

| Substance | amyloid nucleation score |
| --- | --- |
| GFRFNKIRMSPDSNTLCGCA | inactive |
| PRTSKFVAVAFKV | inactive |
| GTGWVTSVFLCTVNWVDHRR | 2.4 ± 0.084 |
| CGQFVEISKYG | inactive |
| FRVEFTVMFLGVCTYSGDAL | -0.329 ± 0.65 |
| TQRICRWLMVVWCDGRETHE | 0.403 ± 0.35 |
| FSRPLPTPESYRW | -0.287 ± 1.3 |
| TERESMCFLYWVSRRHYTGN | -0.541 ± 0.55 |
| IFVNSTVLFLMHVCCLSVIS | 2.12 ± 0.068 |
| LMKWALNTELKMG | inactive |
| SNSFTAFVYTYPWDHLVGVL | -0.195 ± 0.47 |
| VLDVVY | inactive |
| YFGDPVLNASLVIVLHLYWL | 1.21 ± 0.078 |
| DSLILWHGDANCSRLGYRGH | inactive |
| SQGLYVGPVAPSGTVRRVWM | inactive |
| STCMFVGSDSRVRVRYIDIC | inactive |
| AVSSVLIHALYLVGMLPPSN | 1.83 ± 0.092 |
| WRVYVFNVLETYMLRVKWVG | inactive |
| CVSMKRN | 2.07 ± 0.067 |
| MYGEMYCRFCVVVVGWLQFV | inactive |
| IAFATFVVTFIMMEEMFFKN | inactive |

| Substance | amyloid nucleation score |
| --- | --- |
| VICLLPLT | 0.099 ± 0.3 |
| SRGLYKYLGLRFFMYGRVLR | inactive |
| WCDYMKNPCSFEGKFLWRWP | inactive |
| LSLATTSTLTLPMWKGTRLN | 0.744 ± 0.2 |
| DLDGVPTHSVVERMKTWLDT | inactive |
| YIVST | inactive |
| CFVYRTLISNLFSIWHSLQF | inactive |
| SVVAYFLLIRYGDYRYHLQM | inactive |
| RSSDSDMSLECKAVE | inactive |
| FIWTFK | 1.35 ± 0.092 |
| IYVGHK | inactive |
| VPGYLWECS | inactive |
| RACML | inactive |
| SKAMLTVA | inactive |
| PYHGSSMLKIRVRGD | inactive |
| GSEMVAGHS | inactive |
| ILSITC | inactive |
| DSPTE | inactive |
| LKTVSMSYD | inactive |
